Assay: melting temperature; melt of duplexes
Conditions: sodium 0.0675 M; strand 1 µM

Point of comparison: “CGACGTGCCTCATGTGCTG+CAGCACATGAGGCACGTCG (((((((((((((((((((+)))))))))))))))))))”, Tm 65.8 °C. Against it:
- CGACGTGCCATATGTGCTG+CAGCACATAGTGCACGTCG ((((((((..(((((((((+)))))))))..)))))))) — lower, 47.1 °C
- CGACGTGCAAAATGTGCTG+CAGCACATTTCGCACGTCG ((((((((.((((((((((+)))))))))).)))))))) — lower, 55.4 °C
- CGACGTGCCGCATGTGCTG+CAGCACATGGGGCACGTCG (((((((((.(((((((((+))))))))).))))))))) — lower, 62.6 °C
- CGACGTGCGGGATGTGCTG+CAGCACATCTCGCACGTCG (((((((((.(((((((((+))))))))).))))))))) — lower, 62.3 °C
- CGACGTGCACTATGTGCTG+CAGCACATATTGCACGTCG (((((((((.(((((((((+))))))))).))))))))) — lower, 51.5 °C
- CGACGTGCCATATGTGCTG+CAGCACATGTCGCACGTCG ((((((((.(.((((((((+)))))))).).)))))))) — lower, 50.5 °C
- CGACGTGCACGATGTGCTG+CAGCACATTTTGCACGTCG (((((((((..((((((((+))))))))..))))))))) — lower, 48.5 °C
- CGACGTGCGGGATGTGCTG+CAGCACATGAAGCACGTCG ((((((((...((((((((+))))))))...)))))))) — lower, 53.7 °C
- CGACGTGCACAATGTGCTG+CAGCACATATTGCACGTCG (((((((((..((((((((+))))))))..))))))))) — lower, 48 °C
- CGACGTGCAAAATGTGCTG+CAGCACATTACGCACGTCG ((((((((..(((((((((+)))))))))..)))))))) — lower, 51.5 °C
- CGACGTGCGAGATGTGCTG+CAGCACATAGGGCACGTCG ((((((((...((((((((+))))))))...)))))))) — lower, 50.7 °C
- CGACGTGCAGCATGTGCTG+CAGCACATCCTGCACGTCG ((((((((((.((((((((+)))))))).)))))))))) — lower, 53.9 °C
- CGACGTGCCTCATGTGCTG+CAGCACATATAGCACGTCG ((((((((...((((((((+))))))))...)))))))) — lower, 48.8 °C
- CGACGTGCCCCATGTGCTG+CAGCACATGTTGCACGTCG ((((((((..(((((((((+)))))))))..)))))))) — lower, 51.8 °C
- CGACGTGCGGTATGTGCTG+CAGCACATAAGGCACGTCG ((((((((..(((((((((+)))))))))..)))))))) — lower, 53 °C
- CGACGTGCCGAATGTGCTG+CAGCACATGTGGCACGTCG (((((((((..((((((((+))))))))..))))))))) — lower, 57.2 °C
- CGACGTGCAGAATGTGCTG+CAGCACATTTCGCACGTCG ((((((((..(((((((((+)))))))))..)))))))) — lower, 53.5 °C
- CGACGTGCCACATGTGCTG+CAGCACATCAAGCACGTCG ((((((((...((((((((+))))))))...)))))))) — lower, 47.7 °C
- CGACGTGCCCCATGTGCTG+CAGCACATGAGGCACGTCG (((((((((.(((((((((+))))))))).))))))))) — lower, 59.6 °C
- CGACGTGCGGCATGTGCTG+CAGCACATGTTGCACGTCG ((((((((..(((((((((+)))))))))..)))))))) — lower, 57.6 °C
- CGACGTGCTCTATGTGCTG+CAGCACATGTCGCACGTCG ((((((((...((((((((+))))))))...)))))))) — lower, 48.1 °C
- CGACGTGCAGTATGTGCTG+CAGCACATTCGGCACGTCG ((((((((.(.((((((((+)))))))).).)))))))) — lower, 53.1 °C
- CGACGTGCTCCATGTGCTG+CAGCACATGTCGCACGTCG ((((((((..(((((((((+)))))))))..)))))))) — lower, 52.1 °C
- CGACGTGCCGTATGTGCTG+CAGCACATTACGCACGTCG ((((((((...((((((((+))))))))...)))))))) — lower, 50.9 °C
- CGACGTGCTCCATGTGCTG+CAGCACATTTAGCACGTCG (((((((((..((((((((+))))))))..))))))))) — lower, 49.4 °C
- CGACGTGCTGAATGTGCTG+CAGCACATGATGCACGTCG ((((((((...((((((((+))))))))...)))))))) — lower, 55.2 °C
- CGACGTGCAAAATGTGCTG+CAGCACATTCCGCACGTCG ((((((((..(((((((((+)))))))))..)))))))) — lower, 50.6 °C
- CGACGTGCGTCATGTGCTG+CAGCACATTTTGCACGTCG ((((((((...((((((((+))))))))...)))))))) — lower, 48.4 °C
- CGACGTGCCAGATGTGCTG+CAGCACATTGCGCACGTCG ((((((((...((((((((+))))))))...)))))))) — lower, 51.2 °C
- CGACGTGCTCTATGTGCTG+CAGCACATTGGGCACGTCG ((((((((.(.((((((((+)))))))).).)))))))) — lower, 53.4 °C
- CGACGTGCCTTATGTGCTG+CAGCACATTTGGCACGTCG (((((((((..((((((((+))))))))..))))))))) — lower, 54.3 °C
- CGACGTGCACAATGTGCTG+CAGCACATGGGGCACGTCG ((((((((.(.((((((((+)))))))).).)))))))) — lower, 55.2 °C
- CGACGTGCAATATGTGCTG+CAGCACATAGTGCACGTCG (((((((((.(((((((((+))))))))).))))))))) — lower, 53.9 °C
- CGACGTGCGGAATGTGCTG+CAGCACATACTGCACGTCG ((((((((.(.((((((((+)))))))).).)))))))) — lower, 54.3 °C
- CGACGTGCATAATGTGCTG+CAGCACATTCCGCACGTCG ((((((((..(((((((((+)))))))))..)))))))) — lower, 50.2 °C
- CGACGTGCGCGATGTGCTG+CAGCACATACCGCACGTCG (((((((((..((((((((+))))))))..))))))))) — lower, 53.8 °C
- CGACGTGCCTGATGTGCTG+CAGCACATAACGCACGTCG ((((((((.(.((((((((+)))))))).).)))))))) — lower, 48.8 °C
- CGACGTGCGTGATGTGCTG+CAGCACATGTCGCACGTCG (((((((((..((((((((+))))))))..))))))))) — lower, 55.2 °C
- CGACGTGCTAAATGTGCTG+CAGCACATAATGCACGTCG ((((((((...((((((((+))))))))...)))))))) — lower, 50.7 °C
- CGACGTGCTGAATGTGCTG+CAGCACATACTGCACGTCG ((((((((.(.((((((((+)))))))).).)))))))) — lower, 53.7 °C
- CGACGTGCACTATGTGCTG+CAGCACATTGCGCACGTCG ((((((((.(.((((((((+)))))))).).)))))))) — lower, 48.8 °C
- CGACGTGCCTGATGTGCTG+CAGCACATCGGGCACGTCG (((((((((.(((((((((+))))))))).))))))))) — lower, 61.7 °C
- CGACGTGCGTTATGTGCTG+CAGCACATACTGCACGTCG ((((((((..(((((((((+)))))))))..)))))))) — lower, 51.6 °C
- CGACGTGCTCGATGTGCTG+CAGCACATGGGGCACGTCG ((((((((.(.((((((((+)))))))).).)))))))) — lower, 54.5 °C
- CGACGTGCTACATGTGCTG+CAGCACATTCGGCACGTCG ((((((((...((((((((+))))))))...)))))))) — lower, 49.1 °C
- CGACGTGCAAAATGTGCTG+CAGCACATGGAGCACGTCG ((((((((...((((((((+))))))))...)))))))) — lower, 53.9 °C
- CGACGTGCGGTATGTGCTG+CAGCACATGGCGCACGTCG (((((((((..((((((((+))))))))..))))))))) — lower, 59.9 °C
- CGACGTGCACGATGTGCTG+CAGCACATAAAGCACGTCG ((((((((...((((((((+))))))))...)))))))) — lower, 46.8 °C
- CGACGTGCTTGATGTGCTG+CAGCACATTAAGCACGTCG ((((((((((.((((((((+)))))))).)))))))))) — lower, 57.2 °C
- CGACGTGCGAGATGTGCTG+CAGCACATCCAGCACGTCG ((((((((..(((((((((+)))))))))..)))))))) — lower, 56.5 °C
- CGACGTGCAACATGTGCTG+CAGCACATCCAGCACGTCG ((((((((...((((((((+))))))))...)))))))) — lower, 47.1 °C
- CGACGTGCTTTATGTGCTG+CAGCACATAGGGCACGTCG ((((((((..(((((((((+)))))))))..)))))))) — lower, 51.1 °C
- CGACGTGCAGAATGTGCTG+CAGCACATTTTGCACGTCG (((((((((.(((((((((+))))))))).))))))))) — lower, 57 °C
- CGACGTGCGACATGTGCTG+CAGCACATCGCGCACGTCG (((((((((..((((((((+))))))))..))))))))) — lower, 54.1 °C
- CGACGTGCTCAATGTGCTG+CAGCACATACTGCACGTCG ((((((((...((((((((+))))))))...)))))))) — lower, 48.7 °C
- CGACGTGCTGCATGTGCTG+CAGCACATTCAGCACGTCG ((((((((((.((((((((+)))))))).)))))))))) — lower, 57 °C
- CGACGTGCAGGATGTGCTG+CAGCACATATGGCACGTCG ((((((((...((((((((+))))))))...)))))))) — lower, 51.3 °C
- CGACGTGCACCATGTGCTG+CAGCACATCGTGCACGTCG ((((((((((.((((((((+)))))))).)))))))))) — lower, 49.6 °C
- CGACGTGCGAGATGTGCTG+CAGCACATTTAGCACGTCG ((((((((.(.((((((((+)))))))).).)))))))) — lower, 53.3 °C
- CGACGTGCCAGATGTGCTG+CAGCACATAACGCACGTCG ((((((((...((((((((+))))))))...)))))))) — lower, 48.6 °C
- CGACGTGCTTAATGTGCTG+CAGCACATCATGCACGTCG ((((((((.(.((((((((+)))))))).).)))))))) — lower, 50.3 °C
- CGACGTGCGTGATGTGCTG+CAGCACATAATGCACGTCG ((((((((.(.((((((((+)))))))).).)))))))) — lower, 52.9 °C
- CGACGTGCAGGATGTGCTG+CAGCACATATAGCACGTCG ((((((((...((((((((+))))))))...)))))))) — lower, 50.6 °C
- CGACGTGCACGATGTGCTG+CAGCACATCCGGCACGTCG ((((((((..(((((((((+)))))))))..)))))))) — lower, 52.4 °C
- CGACGTGCCAGATGTGCTG+CAGCACATGAAGCACGTCG ((((((((...((((((((+))))))))...)))))))) — lower, 50.5 °C
- CGACGTGCAACATGTGCTG+CAGCACATTGGGCACGTCG ((((((((...((((((((+))))))))...)))))))) — lower, 50.1 °C
- CGACGTGCCACATGTGCTG+CAGCACATGCGGCACGTCG (((((((((.(((((((((+))))))))).))))))))) — lower, 60.2 °C
- CGACGTGCCACATGTGCTG+CAGCACATAACGCACGTCG ((((((((...((((((((+))))))))...)))))))) — lower, 47.1 °C
- CGACGTGCATTATGTGCTG+CAGCACATAAGGCACGTCG ((((((((.((((((((((+)))))))))).)))))))) — lower, 56.7 °C
- CGACGTGCGAGATGTGCTG+CAGCACATATCGCACGTCG ((((((((((.((((((((+)))))))).)))))))))) — lower, 60.4 °C
- CGACGTGCACAATGTGCTG+CAGCACATGACGCACGTCG ((((((((...((((((((+))))))))...)))))))) — lower, 48.2 °C

Reference: the array DNA melting data of Ke et al.
